Data published in IntAct's records for PubMed 25910212.

B1: Keratin, type II cytoskeletal 1 (Homo sapiens), P04264 (parent)
chain: MSRQFSSRSGYRSGGGFSSGSAGIINYQRRTTSSSTRRSGGGGGRFSSCGGGGGSFGAGGGFGSRSLVNLGGSKSISISVARGGGRGSGFGGGYGGGGFGGGGFGGGGFGGGGIGGGGFGGFGSGGGGFGGGGFGGGGYGGGYGPVCPPGGIQEVTINQSLLQPLNVEIDPEIQKVKSREREQIKSLNNQFASFIDKVRFLEQQNQVLQTKWELLQQVDTSTRTHNLEPYFESFINNLRRRVDQLKSDQSRLDSELKNMQDMVEDYRNKYEDEINKRTNAENEFVTIKKDVDGAYMTKVDLQAKLDNLQQEIDFLTALYQAELSQMQTQISETNVILSMDNNRSLDLDSIIAEVKAQYEDIAQKSKAEAESLYQSKYEELQITAGRHGDSVRNSKIEISELNRVIQRLRSEIDNVKKQISNLQQSISDAEQRGENALKDAKNKLNDLEDALQQAKEDLARLLRDYQELMNTKLALDLEIATYRTLLEGEESRMSGECAPNVSVSVSTSHTTISGGGSRGGGGGGYGSGGSSYGSGGGSYGSGGGGGGGRGSYGSGGSSYGSGGGSYGSGGGGGGHGSYGSGSSSGGYRGGSGGGGGGSSGGRGSGGGSSGGSIGGRGSSSGGVKSSGGSSSVKFVSTTYSGVTR
partner: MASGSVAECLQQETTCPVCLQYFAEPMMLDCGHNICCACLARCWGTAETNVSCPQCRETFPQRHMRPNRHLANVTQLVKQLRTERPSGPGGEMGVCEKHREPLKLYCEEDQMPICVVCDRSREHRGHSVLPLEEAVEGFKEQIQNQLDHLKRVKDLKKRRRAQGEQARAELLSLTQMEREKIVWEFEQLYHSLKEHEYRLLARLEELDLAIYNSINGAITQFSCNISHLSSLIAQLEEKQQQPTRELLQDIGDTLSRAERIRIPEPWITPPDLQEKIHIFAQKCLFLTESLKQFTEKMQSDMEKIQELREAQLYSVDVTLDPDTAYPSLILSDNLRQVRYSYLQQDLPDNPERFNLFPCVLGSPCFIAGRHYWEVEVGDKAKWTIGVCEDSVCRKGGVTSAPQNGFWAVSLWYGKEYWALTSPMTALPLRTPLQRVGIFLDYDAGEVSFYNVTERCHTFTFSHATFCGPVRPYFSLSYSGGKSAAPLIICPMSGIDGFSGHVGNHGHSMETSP
B2: E3 ubiquitin-protein ligase TRIM32 (Homo sapiens), Q13049 (parent)
chain: MAAAAASHLNLDALREVLECPICMESFTEEQLRPKLLHCGHTICRQCLEKLLASSINGVRCPFCSKITRITSLTQLTDNLTVLKIIDTAGLSEAVGLLMCRSCGRRLPRQFCRSCGLVLCEPCREADHQPPGHCTLPVKEAAEERRRDFGEKLTRLRELMGELQRRKAALEGVSKDLQARYKAVLQEYGHEERRVQDELARSRKFFTGSLAEVEKSNSQVVEEQSYLLNIAEVQAVSRCDYFLAKIKQADVALLEETADEEEPELTASLPRELTLQDVELLKVGHVGPLQIGQAVKKPRTVNVEDSWAMEATASAASTSVTFREMDMSPEEVVASPRASPAKQRGPEAASNIQQCLFLKKMGAKGSTPGMFNLPVSLYVTSQGEVLVADRGNYRIQVFTRKGFLKEIRRSPSGIDSFVLSFLGADLPNLTPLSVAMNCQGLIGVTDSYDNSLKVYTLDGHCVACHRSQLSKPWGITALPSGQFVVTDVEGGKLWCFTVDRGSGVVKYSCLCSAVRPKFVTCDAEGTVYFTQGLGLNLENRQNEHHLEGGFSIGSVGPDGQLGRQISHFFSENEDFRCIAGMCVDARGDLIVADSSRKEILHFPKGGGYSVLIREGLTCPVGIALTPKGQLLVLDCWDHCIKIYSYHLRRYSTP
B3: Keratin, type II cytoskeletal 1 (Homo sapiens), P04264 (parent)
chain: B1 chain
B4: Adenosylhomocysteinase (Homo sapiens), P23526 (parent)
chain: MSDKLPYKVADIGLAAWGRKALDIAENEMPGLMRMRERYSASKPLKGARIAGCLHMTVETAVLIETLVTLGAEVQWSSCNIFSTQDHAAAAIAKAGIPVYAWKGETDEEYLWCIEQTLYFKDGPLNMILDDGGDLTNLIHTKYPQLLPGIRGISEETTTGVHNLYKMMANGILKVPAINVNDSVTKSKFDNLYGCRESLIDGIKRATDVMIAGKVAVVAGYGDVGKGCAQALRGFGARVIITEIDPINALQAAMEGYEVTTMDEACQEGNIFVTTTGCIDIILGRHFEQMKDDAIVCNIGHFDVEIDVKWLNENAVEKVNIKPQVDRYRLKNGRRIILLAEGRLVNLGCAMGHPSFVMSNSFTNQVMAQIELWTHPDKYPVGVHFLPKKLDEAVAEAHLGKLNVKLTKLTEKQAQYLGMSCDGPFKPDHYRY
B5: Cyclin-dependent kinase 4 (Homo sapiens), P11802 (parent)
chain: MATSRYEPVAEIGVGAYGTVYKARDPHSGHFVALKSVRVPNGGGGGGGLPISTVREVALLRRLEAFEHPNVVRLMDVCATSRTDREIKVTLVFEHVDQDLRTYLDKAPPPGLPAETIKDLMRQFLRGLDFLHANCIVHRDLKPENILVTSGGTVKLADFGLARIYSYQMALTPVVVTLWYRAPEVLLQSTYATPVDMWSVGCIFAEMFRRKPLFCGNSEADQLGKIFDLIGLPPEDDWPRDVSLPRGAFPPRGPRPVQSVVPEMEESGAQLLLEMLTFNPHKRISAFRALQHSYLHKDEGNPE
B6: Keratin, type II cytoskeletal 6A (Homo sapiens), P02538 (parent)
chain: MASTSTTIRSHSSSRRGFSANSARLPGVSRSGFSSVSVSRSRGSGGLGGACGGAGFGSRSLYGLGGSKRISIGGGSCAISGGYGSRAGGSYGFGGAGSGFGFGGGAGIGFGLGGGAGLAGGFGGPGFPVCPPGGIQEVTVNQSLLTPLNLQIDPTIQRVRAEEREQIKTLNNKFASFIDKVRFLEQQNKVLETKWTLLQEQGTKTVRQNLEPLFEQYINNLRRQLDSIVGERGRLDSELRGMQDLVEDFKNKYEDEINKRTAAENEFVTLKKDVDAAYMNKVELQAKADTLTDEINFLRALYDAELSQMQTHISDTSVVLSMDNNRNLDLDSIIAEVKAQYEEIAQRSRAEAESWYQTKYEELQVTAGRHGDDLRNTKQEIAEINRMIQRLRSEIDHVKKQCANLQAAIADAEQRGEMALKDAKNKLEGLEDALQKAKQDLARLLKEYQELMNVKLALDVEIATYRKLLEGEECRLNGEGVGQVNISVVQSTVSSGYGGASGVGSGLGLGGGSSYSYGSGLGVGGGFSSSSGRAIGGGLSSVGGGSSTIKYTTTSSSSRKSYKH

Variants of: B1
Settings: with tri27_human TRIM27, P14373

effect of a mutation on the interaction | Variant
causing an interaction | L161P

Variants of: B2
Settings: with PDE9A

effect of a mutation on the interaction | Variant
with no effect | P130S
disrupting interaction strength | R394H
disrupting interaction strength | D487N

Variants of: B2
Settings: with praf1_human RABAC1, Q9UI14
Chain of praf1_human RABAC1, Q9UI14 (Q9UI14 whole entry): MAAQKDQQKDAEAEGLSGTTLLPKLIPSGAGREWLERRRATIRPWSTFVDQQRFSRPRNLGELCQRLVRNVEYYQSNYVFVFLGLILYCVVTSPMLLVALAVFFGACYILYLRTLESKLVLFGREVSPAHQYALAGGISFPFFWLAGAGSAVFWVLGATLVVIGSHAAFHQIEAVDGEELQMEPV

effect of a mutation on the interaction | Variant
with no effect | P130S
disrupting interaction strength | R394H
disrupting interaction strength | D487N

Variants of: B2
Settings: with ABI2, Q9NYB9-2
Chain of ABI2, Q9NYB9-2 (Q9NYB9 other isoform, or with tags, fused parts or gaps): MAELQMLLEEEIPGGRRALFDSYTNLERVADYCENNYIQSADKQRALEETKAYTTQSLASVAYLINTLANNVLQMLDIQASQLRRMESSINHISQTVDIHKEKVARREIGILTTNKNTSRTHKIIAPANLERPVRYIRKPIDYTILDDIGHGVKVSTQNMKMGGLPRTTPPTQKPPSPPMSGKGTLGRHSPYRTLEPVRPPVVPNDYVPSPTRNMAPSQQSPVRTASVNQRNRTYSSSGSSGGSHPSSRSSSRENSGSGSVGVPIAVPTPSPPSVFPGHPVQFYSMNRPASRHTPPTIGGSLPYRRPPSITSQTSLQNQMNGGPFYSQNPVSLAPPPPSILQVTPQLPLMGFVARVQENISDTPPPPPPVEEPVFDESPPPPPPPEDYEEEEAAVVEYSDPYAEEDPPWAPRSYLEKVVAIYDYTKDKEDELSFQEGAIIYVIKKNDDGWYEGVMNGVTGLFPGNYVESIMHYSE

effect of a mutation on the interaction | Variant
with no effect | P130S
disrupting interaction strength | R394H
disrupting interaction strength | D487N

Variants of: B2
Settings: with PDE9A
Remark: another data set of the same source

effect of a mutation on the interaction | Variant
with no effect | R394H

Variants of: B3
Settings: with nup62_human NUP62, P37198
Chain of nup62_human NUP62, P37198 (P37198 whole entry): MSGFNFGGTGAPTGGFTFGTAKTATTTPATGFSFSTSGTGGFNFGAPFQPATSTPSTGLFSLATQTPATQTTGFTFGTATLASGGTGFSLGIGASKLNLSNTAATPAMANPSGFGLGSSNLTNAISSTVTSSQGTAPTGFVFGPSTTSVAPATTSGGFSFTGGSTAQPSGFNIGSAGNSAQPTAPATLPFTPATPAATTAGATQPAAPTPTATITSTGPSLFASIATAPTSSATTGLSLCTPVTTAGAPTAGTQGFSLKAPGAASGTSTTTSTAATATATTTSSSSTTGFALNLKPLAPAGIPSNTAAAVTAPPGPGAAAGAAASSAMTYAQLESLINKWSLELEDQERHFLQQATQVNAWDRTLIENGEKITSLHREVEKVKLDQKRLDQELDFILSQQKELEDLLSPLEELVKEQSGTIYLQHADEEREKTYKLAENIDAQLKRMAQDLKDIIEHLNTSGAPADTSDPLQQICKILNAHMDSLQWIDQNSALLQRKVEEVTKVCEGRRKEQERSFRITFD

effect of a mutation on the interaction | Variant
causing an interaction | L161P

Variants of: B3
Settings: with KRT15, P19012
Target sequence in this assay (P19012 whole entry): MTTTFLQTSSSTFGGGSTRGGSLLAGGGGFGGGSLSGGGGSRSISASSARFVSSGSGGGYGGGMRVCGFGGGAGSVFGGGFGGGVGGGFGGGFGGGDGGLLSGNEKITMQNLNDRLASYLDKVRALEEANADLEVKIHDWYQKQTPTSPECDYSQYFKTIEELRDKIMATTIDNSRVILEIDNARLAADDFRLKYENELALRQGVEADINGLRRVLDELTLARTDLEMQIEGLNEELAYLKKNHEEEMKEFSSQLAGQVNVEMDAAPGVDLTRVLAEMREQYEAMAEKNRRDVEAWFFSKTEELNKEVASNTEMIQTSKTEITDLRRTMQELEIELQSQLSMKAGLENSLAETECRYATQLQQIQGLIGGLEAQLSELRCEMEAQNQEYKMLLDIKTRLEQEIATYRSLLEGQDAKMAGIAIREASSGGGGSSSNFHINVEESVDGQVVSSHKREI

effect of a mutation on the interaction | Variant
causing an interaction | L161P

Variants of: B3
Settings: with kt33b_human KRT33B

effect of a mutation on the interaction | Variant
causing an interaction | L161P

Variants of: B3
Settings: with goga2_human GOLGA2, Q08379
Target sequence in this assay (Q08379 whole entry): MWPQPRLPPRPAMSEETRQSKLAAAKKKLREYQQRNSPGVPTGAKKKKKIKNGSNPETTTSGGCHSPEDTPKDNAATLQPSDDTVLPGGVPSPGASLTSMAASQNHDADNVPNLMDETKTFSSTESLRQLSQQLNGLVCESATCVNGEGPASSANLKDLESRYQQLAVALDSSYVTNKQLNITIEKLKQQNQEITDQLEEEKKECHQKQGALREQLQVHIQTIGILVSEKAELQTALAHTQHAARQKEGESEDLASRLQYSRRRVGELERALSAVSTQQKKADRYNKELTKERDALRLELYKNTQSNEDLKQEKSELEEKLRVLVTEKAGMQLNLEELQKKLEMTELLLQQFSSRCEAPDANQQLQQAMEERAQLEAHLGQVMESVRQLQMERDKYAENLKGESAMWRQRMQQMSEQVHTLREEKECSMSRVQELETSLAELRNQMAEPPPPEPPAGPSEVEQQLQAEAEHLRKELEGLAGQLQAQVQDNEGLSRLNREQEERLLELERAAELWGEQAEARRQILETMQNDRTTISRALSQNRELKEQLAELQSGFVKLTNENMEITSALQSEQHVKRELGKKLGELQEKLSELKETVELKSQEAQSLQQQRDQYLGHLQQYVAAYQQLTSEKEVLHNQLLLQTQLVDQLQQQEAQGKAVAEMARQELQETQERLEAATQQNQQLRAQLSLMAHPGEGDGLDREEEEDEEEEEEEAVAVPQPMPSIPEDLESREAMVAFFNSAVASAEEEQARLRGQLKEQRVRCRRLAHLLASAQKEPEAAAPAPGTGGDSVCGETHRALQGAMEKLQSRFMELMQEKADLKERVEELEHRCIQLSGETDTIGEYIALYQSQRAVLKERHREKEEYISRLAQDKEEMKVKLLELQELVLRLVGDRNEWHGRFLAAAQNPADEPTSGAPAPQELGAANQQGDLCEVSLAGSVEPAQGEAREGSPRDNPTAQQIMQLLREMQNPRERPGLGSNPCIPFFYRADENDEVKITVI

effect of a mutation on the interaction | Variant
causing an interaction | L161P

Variants of: B3
Settings: with KRT15, P19012
Remark: another data set of the same source
Target sequence in this assay (P19012 whole entry): as the sequence (P19012 whole entry) above

effect of a mutation on the interaction | Variant
with no effect | L161P

Variants of: B3
Settings: with kt33b_human KRT33B
Remark: another data set of the same source

effect of a mutation on the interaction | Variant
with no effect | L161P

Variants of: B4
Settings: with ca050_human C1orf50, Q9BV19
Chain of ca050_human C1orf50, Q9BV19 (Q9BV19 whole entry): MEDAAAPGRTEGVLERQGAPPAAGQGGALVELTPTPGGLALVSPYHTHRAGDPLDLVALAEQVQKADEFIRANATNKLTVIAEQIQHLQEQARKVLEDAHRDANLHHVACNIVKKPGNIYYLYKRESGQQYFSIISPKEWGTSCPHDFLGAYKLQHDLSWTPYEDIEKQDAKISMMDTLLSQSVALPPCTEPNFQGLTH

effect of a mutation on the interaction | Variant
with no effect | A89V
with no effect | D86G
with no effect | Y143C

Variants of: B4
Settings: with ca050_human C1orf50, Q9BV19
Remark: another data set of the same source

effect of a mutation on the interaction | Variant
disrupting interaction strength | D86G

Variants of: B5
Settings: with ccnd1_human CCND1, P24385
Chain of ccnd1_human CCND1, P24385 (P24385 whole entry): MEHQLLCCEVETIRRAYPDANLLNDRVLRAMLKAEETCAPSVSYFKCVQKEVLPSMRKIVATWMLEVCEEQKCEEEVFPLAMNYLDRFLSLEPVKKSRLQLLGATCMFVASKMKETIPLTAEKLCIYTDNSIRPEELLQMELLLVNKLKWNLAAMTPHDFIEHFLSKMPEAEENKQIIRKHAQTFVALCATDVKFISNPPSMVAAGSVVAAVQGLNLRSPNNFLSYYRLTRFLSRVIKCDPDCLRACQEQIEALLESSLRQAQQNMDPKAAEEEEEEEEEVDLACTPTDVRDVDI

effect of a mutation on the interaction | Variant
with no effect | S52N
with no effect | N41S
with no effect | R24H
with no effect | R24C

Variants of: B5
Settings: with ccnd3_human CCND3, P30281
Chain of ccnd3_human CCND3, P30281 (P30281 whole entry): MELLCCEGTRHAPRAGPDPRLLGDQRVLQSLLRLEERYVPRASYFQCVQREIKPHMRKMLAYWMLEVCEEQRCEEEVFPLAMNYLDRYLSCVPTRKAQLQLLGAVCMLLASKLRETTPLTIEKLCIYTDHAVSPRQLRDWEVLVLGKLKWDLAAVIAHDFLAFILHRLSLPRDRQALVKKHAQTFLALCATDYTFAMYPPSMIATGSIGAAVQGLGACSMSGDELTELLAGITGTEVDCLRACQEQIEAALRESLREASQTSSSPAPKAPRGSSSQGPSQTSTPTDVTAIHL

effect of a mutation on the interaction | Variant
with no effect | S52N
with no effect | N41S
with no effect | R24H
with no effect | R24C

Variants of: B5
Settings: with ccnd2_human CCND2, P30279
Chain of ccnd2_human CCND2, P30279 (P30279 whole entry): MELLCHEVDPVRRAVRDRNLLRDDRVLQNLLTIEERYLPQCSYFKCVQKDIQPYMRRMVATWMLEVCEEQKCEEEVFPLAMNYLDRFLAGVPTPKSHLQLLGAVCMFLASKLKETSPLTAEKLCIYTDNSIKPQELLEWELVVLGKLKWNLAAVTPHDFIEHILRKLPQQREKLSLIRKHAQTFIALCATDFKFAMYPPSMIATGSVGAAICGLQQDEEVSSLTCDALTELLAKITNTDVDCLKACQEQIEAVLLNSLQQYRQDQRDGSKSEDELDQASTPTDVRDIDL

effect of a mutation on the interaction | Variant
with no effect | S52N
with no effect | N41S
with no effect | R24H
with no effect | R24C

Variants of: B5
Settings: with cdn2b_human CDKN2B

effect of a mutation on the interaction | Variant
with no effect | S52N
with no effect | N41S
with no effect | R24H
with no effect | R24C

Variants of: B5
Settings: with cdn2c_human CDKN2C

effect of a mutation on the interaction | Variant
with no effect | S52N
with no effect | N41S
disrupting interaction strength | R24H
disrupting interaction strength | R24C

Variants of: B5
Settings: with cdn2b_human CDKN2B
Remark: another data set of the same source

effect of a mutation on the interaction | Variant
disrupting interaction strength | R24H

Variants of: B5
Settings: with ccnd2_human CCND2, P30279
Remark: another data set of the same source

effect of a mutation on the interaction | Variant
disrupting interaction strength | R24C

Variants of: B6
Settings: with KRT15, P19012
Target sequence in this assay (P19012 whole entry): as the sequence (P19012 whole entry) above

effect of a mutation on the interaction | Variant
with no effect | N171K
with no effect | A463P

Variants of: B6
Settings: with KRT40, Q6A162
Chain of KRT40, Q6A162 (Q6A162 whole entry): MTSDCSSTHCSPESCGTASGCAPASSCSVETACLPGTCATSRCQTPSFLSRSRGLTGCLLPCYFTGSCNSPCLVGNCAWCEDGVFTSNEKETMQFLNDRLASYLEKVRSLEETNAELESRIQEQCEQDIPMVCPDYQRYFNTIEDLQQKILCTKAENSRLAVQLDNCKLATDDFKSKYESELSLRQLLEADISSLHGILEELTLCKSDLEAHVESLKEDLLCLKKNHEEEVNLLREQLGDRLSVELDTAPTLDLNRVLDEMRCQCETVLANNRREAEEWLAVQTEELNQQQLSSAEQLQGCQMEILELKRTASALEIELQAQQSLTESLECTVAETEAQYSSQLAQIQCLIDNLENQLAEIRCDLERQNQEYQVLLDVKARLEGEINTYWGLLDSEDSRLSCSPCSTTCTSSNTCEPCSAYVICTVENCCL

effect of a mutation on the interaction | Variant
with no effect | N171K
with no effect | A463P

Variants of: B6
Settings: with k1h1_human KRT31, Q15323
Chain of k1h1_human KRT31, Q15323 (Q15323 whole entry): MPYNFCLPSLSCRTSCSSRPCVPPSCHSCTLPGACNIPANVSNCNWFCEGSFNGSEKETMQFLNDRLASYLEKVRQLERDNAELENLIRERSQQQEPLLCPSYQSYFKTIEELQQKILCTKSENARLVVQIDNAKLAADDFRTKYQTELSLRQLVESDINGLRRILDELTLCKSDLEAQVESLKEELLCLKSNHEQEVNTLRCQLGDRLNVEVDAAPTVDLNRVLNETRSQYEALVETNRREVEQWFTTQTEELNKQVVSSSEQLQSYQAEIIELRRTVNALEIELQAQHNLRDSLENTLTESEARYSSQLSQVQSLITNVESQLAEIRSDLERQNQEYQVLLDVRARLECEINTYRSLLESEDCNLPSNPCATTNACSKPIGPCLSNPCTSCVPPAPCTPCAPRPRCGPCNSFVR

effect of a mutation on the interaction | Variant
with no effect | N171K
with no effect | A463P

Variants of: B6
Settings: with tfp11_human TFIP11, Q9UBB9

effect of a mutation on the interaction | Variant
with no effect | N171K
disrupting interaction strength | A463P

Variants of: B6
Settings: with goga2_human GOLGA2, Q08379
Target sequence in this assay (Q08379 whole entry): as the sequence (Q08379 whole entry) above

effect of a mutation on the interaction | Variant
disrupting interaction strength | N171K
with no effect | A463P

Variants of: B6
Settings: with KRT40, Q6A162
Remark: another data set of the same source

effect of a mutation on the interaction | Variant
disrupting interaction strength | A463P
